# From patent US20260026500A1, “AGROCHEMICAL COMPOSITIONS” (BIOTALYS NV, priority 2022, published 2026)
# Tested on: Botrytis cinerea
# Experiment: In vitro microtiter plate antifungal assay, confluence analysis (IncuCyte S3) of spore outgrowth
# Assay type: cell-based
# From the text: An “IC50 value”, “EC50”, “IC50”, “EC50” or “half maximal inhibitory concentration” as used herein interchangeably is a measure for the potency of a polypeptide or cell wall disrupting agent or compositions as described herein in inhibiting the growth of a fungal pathogen. In practice (also see example 1) the growth of a fungal pathogen is tracked by measuring the confluency of said fungal pathogen in for example a well of a 96-well plate or 384-well plate in the presence of a series of different concentrations of the tested polypeptide or cell wall disrupting agent or compositions as described herein. The confluency data at the time-point at which the non-treated or negative control reaches for example 90% saturation is then taken for each concentration of the polypeptide or cell wall disrupting agent or compositions as described herein. Said confluence values are then plotted against the log transformed concentration values yielding a sigmoidal curve. This sigmoid curve may serve to define an IC50 value. Where this IC50 is the concentration of the polypeptide or cell wall disrupting agent or compositions as described herein where the corresponding confluence value is 50% of the saturated value as estimated by the maximum of the sigmoidal function.
# The antifungal activity of VHHs, in combination with CWDEs, was assessed in an in vitro assay against the plant pathogenic fungus Botrytis cinerea. The current in vitro assay is a standard microtiter plate-based antifungal assay against Botrytis cinerea based on confluence analysis using an IncuCyte S3 System tracking the outgrowth of fungal spores overtime until saturation is reached. VHHs and CWDEs were assessed in serial dilutions, alone and in combination. The CWDEs were mixed with one VHH at a fixed ratio and serially diluted in 10 mM sterile HEPES buffer pH 7. […] Confluence was calculated with IncuCyte software version 2021C (Essen BioScience Inc.). […]
# The IC50 value for both the CWDE and VHH were determined separately (FIGS. 1A and 1B, top panel). […]
molecule,measurement,setting,value
"VHH-1: VHH, SEQ ID NO 1; taken from WO2021198396 (protein, Synthetic VHH sequence.) VHH: DVQLVESGGGLVQAGGSLRLSCAASRSIFSINAMDWYRQAPGKQREWVAGITRGGTTKYADSVKGRFTISRDNAKKKVYLQMNSLKPEDTAVYYCNVLRGEQPWTRDYWGQGTQVTVSS","IC50 value, determined separately","VHH or CWDE alone, confluence of Botrytis cinerea, 4-parameter log-logistic fit, CWDE protein concentration overestimated",105.2 µg/mL
same,"% change, additive effect of component, buffer normalized to 100%","dose regime VHH-1 at 16.7 mg/L and CWDE at 25 mg/L, protease inhibitor 0.06 X",20.5%
same,"Estimate (% confluence), additive effect of component, difference from buffer","dose regime VHH-1 at 16.7 mg/L and CWDE at 25 mg/L, protease inhibitor 0.06 X, buffer 55.3",11.3 % confluence
